# Patent publication US20080181899A1 (Regeneron, published 2008)
# Residue numbers refer to the chain shown, from its start.
# T1: mmDII4-mFc (M. mulatta, UniProt Q9NR61 27-524 (human entry))
# T1 construct: also called mmDII4 dimer; not shown: mouse Fc
# T1 chain: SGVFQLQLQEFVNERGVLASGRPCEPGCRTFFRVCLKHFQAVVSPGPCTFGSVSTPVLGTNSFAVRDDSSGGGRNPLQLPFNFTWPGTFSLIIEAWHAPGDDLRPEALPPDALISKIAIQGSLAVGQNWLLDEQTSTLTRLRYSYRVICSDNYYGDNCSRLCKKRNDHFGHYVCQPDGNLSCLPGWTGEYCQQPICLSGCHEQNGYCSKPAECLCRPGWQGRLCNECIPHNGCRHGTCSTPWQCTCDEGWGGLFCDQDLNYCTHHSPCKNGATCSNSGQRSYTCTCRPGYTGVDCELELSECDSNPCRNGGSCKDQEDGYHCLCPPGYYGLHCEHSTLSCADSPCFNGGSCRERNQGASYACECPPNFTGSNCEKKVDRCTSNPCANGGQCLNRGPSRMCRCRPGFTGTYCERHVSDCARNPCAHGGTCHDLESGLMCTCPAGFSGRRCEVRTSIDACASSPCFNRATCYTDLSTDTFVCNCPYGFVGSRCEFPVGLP
# T2: hDII1-hFc (human delta-like ligand 1 fused to human Fc) (human, UniProt O00548 18-544)
# T2 construct: not shown: human Fc
# T2 sequence: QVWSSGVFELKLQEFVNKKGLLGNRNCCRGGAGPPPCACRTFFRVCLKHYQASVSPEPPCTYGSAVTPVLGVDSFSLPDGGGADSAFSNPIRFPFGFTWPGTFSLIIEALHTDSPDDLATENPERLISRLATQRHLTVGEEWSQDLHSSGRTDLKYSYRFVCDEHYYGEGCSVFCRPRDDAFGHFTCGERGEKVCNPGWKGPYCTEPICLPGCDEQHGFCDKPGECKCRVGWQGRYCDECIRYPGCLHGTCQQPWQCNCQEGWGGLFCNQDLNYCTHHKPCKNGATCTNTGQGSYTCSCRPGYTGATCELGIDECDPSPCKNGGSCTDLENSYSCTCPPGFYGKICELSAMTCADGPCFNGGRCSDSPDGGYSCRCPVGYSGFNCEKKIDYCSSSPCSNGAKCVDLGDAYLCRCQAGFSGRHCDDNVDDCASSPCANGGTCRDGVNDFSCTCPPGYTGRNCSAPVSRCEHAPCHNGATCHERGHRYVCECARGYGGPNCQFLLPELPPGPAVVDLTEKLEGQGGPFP
# T3: M. mulatta DII4 monomer (M. mulatta, UniProt Q9NR61 27-524 (human entry))
# T3 construct: also called mmDII4
# T3 chain: T1 chain
# T4: M. facscicularis DII4 monomer (M. facscicularis, UniProt Q9NR61 27-524 (human entry))
# T4 construct: also called mfDII4
# T4 chain: T1 chain with V495M
# B1: 318518-01A10-D8 (antibody, human IgG1)
# heavy: not shown
# VL: EIVMTQSPATLSLSPGERATLSCRASQSVSSYLAWYQQKPGQAPRLLIYDASNRATGIPARFSGSGSGTDFTLTISSLEPEDFAVYYCQHRSNWPPTFGGGTKVEIK
# notes: HCVR 429 with hIgG1 constant region 950; also called REGN281; 318518-1A10-D8
# B2: REGN422 (antibody, human IgG4 S228P)
# heavy: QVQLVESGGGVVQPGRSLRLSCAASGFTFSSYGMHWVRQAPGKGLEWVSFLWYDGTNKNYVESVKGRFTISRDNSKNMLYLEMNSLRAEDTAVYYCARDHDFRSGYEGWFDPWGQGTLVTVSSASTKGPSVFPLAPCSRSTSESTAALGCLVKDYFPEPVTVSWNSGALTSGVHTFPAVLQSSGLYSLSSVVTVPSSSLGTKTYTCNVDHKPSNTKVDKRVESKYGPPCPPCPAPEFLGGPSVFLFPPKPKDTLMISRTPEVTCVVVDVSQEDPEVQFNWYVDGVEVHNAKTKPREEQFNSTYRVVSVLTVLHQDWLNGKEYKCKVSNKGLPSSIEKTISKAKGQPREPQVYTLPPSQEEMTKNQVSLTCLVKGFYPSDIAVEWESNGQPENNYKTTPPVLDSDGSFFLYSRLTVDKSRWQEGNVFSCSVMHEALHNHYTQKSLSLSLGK
# VL: B1 VL with M4L
# notes: HCVR 901 with modified hIgG4 constant region 952
# B3: REGN421 (antibody, human IgG1)
# heavy: not shown
# VL: B1 VL with M4L
# notes: HCVR 901 with hIgG1 constant region 950
# Target: T5, hDII4-mFc (human, UniProt Q9NR61 27-524)
# T5 construct: also called dimeric DII4-mFc; not shown: mouse Fc
# Assay: SPR BIACORE; antibody captured by anti-hFc; dimer analyte
Kd,koff,kon,Binder
16.3 pM,4.96e-06 s⁻¹,302000 M⁻¹ s⁻¹,B1
13.3 pM,4.6e-06 s⁻¹,346000 M⁻¹ s⁻¹,B2
13.7 pM,4.7e-06 s⁻¹,343000 M⁻¹ s⁻¹,B3

# Target: T1, mmDII4-mFc
# Assay: as above
Kd,koff,kon,Binder
14.7 pM,4.64e-06 s⁻¹,316000 M⁻¹ s⁻¹,B1
9.8 pM,4.15e-06 s⁻¹,423000 M⁻¹ s⁻¹,B2
13 pM,3.8e-06 s⁻¹,335000 M⁻¹ s⁻¹,B3

# Target: T6, mDII4-mFc (mouse, UniProt Q9JI71 28-525)
# T6 construct: also called mouse DII4-mFc; not shown: mouse Fc
# Assay: SPR BIACORE; DII4 protein captured by anti-mouse IgG; antibody injected
# Method: Briefly, each of the DII4 proteins was captured (240-470 RU) on goat anti-mouse IgG antibody surfaces, followed by injection of test antibody at a concentration of 100 μg/ml (Table 11).
row,binding result,Binder
1,no binding (tested: 100 µg/ml),B1
2,no binding (tested: 100 µg/ml),B2
3,no binding (tested: 100 µg/ml),B3

# Target: T7, dimeric hDII4-hFc (human, UniProt Q9NR61 27-524, biotin in Example 3 (biotin-DII4-hFc), site not stated)
# T7 construct: also called DII4-Fc; biotin-DII4-hFc; not shown: human Fc
# Assay: competition ELISA; antibody titrated against 30 pM biotin-DII4-hFc (1 hr); free biotin-DII4-hFc on Notch-hFc plate
# Method: The ability of the antibodies to block DII4 binding to Notch was evaluated with an ELISA-based immunoassay. Briefly, Notch-hFc recombinant protein was coated on a 96-well plate in PBS buffer overnight at 4° C. at […], and the nonspecific binding sites were blocked with BSA.
row,IC50,Binder
1,42 pM,B1
2,39 pM,B2
3,45 pM,B3

# Target: T2, hDII1-hFc (human delta-like ligand 1 …)
# Assay: SPR BIACORE; antibody captured by anti-human kappa; hDII1-hFc analyte
# Method: Cross-reactivity of the antibodies to human delta-like ligand1 (SEQ ID NO:953) and human delta-like ligand 3 (SEQ ID NO:954) proteins was determined.
row,binding result,Binder
1,no binding (tested: 100 µg/ml),B1
2,no binding (tested: 100 µg/ml),B2
3,no binding (tested: 100 µg/ml),B3

# Target: T7, dimeric hDII4-hFc
# Assay: cell-based or functional assay
"Notch-inducible luciferase assay IC50 (pM), 1 nM hDII4-hFc","Notch-inducible luciferase assay IC50 (pM), 1.5 nM hDII4-hFc",Binder
50.5 pM,78.7 pM,B1
88.2 pM,131 pM,B2
54.4 pM,87.3 pM,B3

# Target: T8, monomeric hDII4 (human delta-like ligand 4) (human, UniProt Q9NR61 27-524)
# T8 construct: also called monomeric DII4 protein
# Assay: SPR BIACORE; antibody captured by anti-hFc; monomer analyte
# Method: (§1) The binding affinities of selected purified antibodies to hDII4, M. facscicularis DII4 (mfDII4, SEQ IN NO:956), and M. mulatta DII4 (mmDII4, SEQ ID NO:957) monomers were determined using a BIACORE™ 2000 & 3000.
Kd,koff,kon,Binder
148 pM,2.3e-05 s⁻¹,156000 M⁻¹ s⁻¹,B1
144 pM,2.36e-05 s⁻¹,164000 M⁻¹ s⁻¹,B2
133 pM,2.17e-05 s⁻¹,163000 M⁻¹ s⁻¹,B3

# Target: T3, M. mulatta DII4 monomer
# Assay: as above
# Method: as §1
Kd,koff,kon,Binder
329 pM,3.05e-05 s⁻¹,92700 M⁻¹ s⁻¹,B1
375 pM,3.41e-05 s⁻¹,92700 M⁻¹ s⁻¹,B2
333 pM,3.23e-05 s⁻¹,97000 M⁻¹ s⁻¹,B3

# Target: T4, M. facscicularis DII4 monomer
# Assay: as above
# Method: as §1
Kd,koff,kon,Binder
307 pM,2.04e-05 s⁻¹,66400 M⁻¹ s⁻¹,B1
360 pM,2.88e-05 s⁻¹,80100 M⁻¹ s⁻¹,B2
278 pM,2.02e-05 s⁻¹,72800 M⁻¹ s⁻¹,B3
